The values below come from patent US20260234267A1 (KAIGENE, published 2026).

B1: VH2/VL6 humanized anti-CD11b antibody (antibody, human IgG4 S228P, kappa, V domains shown)
VH: QVQLVQSGAEVKKPGSSVKVSCKASGYAFINYLIEWVKQAPGQGLEWIGVINPGSGGTNYNEKFKGRATLTADKSTSTAYMELSSLRSEDTAVYFCARGDDYDDYTMDYWGQGTLVTVSS
VL: EIVLTQSPATLSLSPGERATLSCRASQSISNNLHWYQQKPGQAPRLLIKYASQSESGIPSRFSGSGSGTDFTLTISSLEPEDFGMYFCQQSNSWPLTFGQGTKLEIKR
notes: Lead candidate; IgG4 with S241P and L248E; also called VH2 with VL6
B2: VH4/VL2 humanized anti-CD11b antibody (antibody, V domains shown)
VH: B1 VH with A68V, L70I, F95Y
VL: DIVLTQSPATLSLSPGERATLSCRASQSISNNLHWYQQKPGQAPRLLIKYASQSMSGIPSRFSGSGSGTDFTLTISSLEPEDFGMYFCQQSNSWPLTFGQGTKLEIK
notes: Member of the group 'the variants with VH4 or VH5'; One of the 30 humanized variants
B3: VH4/VL6 humanized anti-CD11b antibody (antibody, human IgG4 S228P, kappa, V domains shown)
VH: B1 VH with A68V, L70I, F95Y
VL: B1 VL
notes: Lead candidate; IgG4 with S241P and L248E; also called VH4 with VL6
B4: VH2/VL3 humanized anti-CD11b antibody (antibody, human IgG4 S228P, kappa)
heavy: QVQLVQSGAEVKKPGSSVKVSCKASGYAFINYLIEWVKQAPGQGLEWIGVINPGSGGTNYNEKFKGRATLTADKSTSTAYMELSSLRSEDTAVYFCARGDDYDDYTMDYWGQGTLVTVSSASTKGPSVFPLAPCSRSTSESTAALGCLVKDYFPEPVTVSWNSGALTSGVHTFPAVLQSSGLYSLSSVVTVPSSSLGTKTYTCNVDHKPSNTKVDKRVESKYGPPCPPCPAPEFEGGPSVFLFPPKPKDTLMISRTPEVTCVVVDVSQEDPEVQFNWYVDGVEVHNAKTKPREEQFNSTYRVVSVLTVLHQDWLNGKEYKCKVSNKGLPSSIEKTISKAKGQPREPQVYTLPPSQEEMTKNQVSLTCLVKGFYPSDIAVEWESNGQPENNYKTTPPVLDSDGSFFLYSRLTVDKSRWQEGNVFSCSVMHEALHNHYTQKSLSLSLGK
light: EIVLTQSPATLSLSPGERATLSCRASQSISNNLHWYQQKPGQAPRLLIKYASQSMSGIPSRFSGSGSGTDFTLTISSLEPEDFGMYFCQQSNSWPLTFGQGTKLEIKRTVAAPSVFIFPPSDEQLKSGTASVVCLLNNFYPREAKVQWKVDNALQSGNSQESVTEQDSKDSTYSLSSTLTLSKADYEKHKVYACEVTHQGLSSPVTKSFNRGEC
notes: Lead candidate; IgG4 with S241P and L248E; also called VH2 with VL3
B5: VH2/VL2 humanized anti-CD11b antibody (antibody, human IgG4 S228P, kappa)
heavy: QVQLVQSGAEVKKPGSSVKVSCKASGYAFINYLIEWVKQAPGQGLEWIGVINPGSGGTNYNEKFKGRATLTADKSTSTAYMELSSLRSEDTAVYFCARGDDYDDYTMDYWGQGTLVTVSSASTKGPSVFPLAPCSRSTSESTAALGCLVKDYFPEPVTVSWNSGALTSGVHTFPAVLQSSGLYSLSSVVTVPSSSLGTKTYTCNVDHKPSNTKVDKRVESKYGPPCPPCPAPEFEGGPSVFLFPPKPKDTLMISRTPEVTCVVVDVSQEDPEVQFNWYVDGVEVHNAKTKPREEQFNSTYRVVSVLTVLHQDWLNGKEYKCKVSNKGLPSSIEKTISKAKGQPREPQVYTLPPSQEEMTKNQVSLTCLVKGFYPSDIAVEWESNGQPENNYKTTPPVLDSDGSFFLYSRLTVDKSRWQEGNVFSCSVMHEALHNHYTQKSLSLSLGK
light: B4 light with E1D
notes: Lead candidate; IgG4 with S241P and L248E; also called VH2 with VL2
B6: VH1/VL6 humanized anti-CD11b antibody (antibody, human IgG4 S228P, kappa, V domains shown)
VH: B1 VH with V5Q, V11L, K13R, R67K, T76S, E89D, T91S, L115S
VL: B1 VL
notes: Lead candidate; IgG4 with S241P and L248E; also called VH1 with VL6
B7: VH4/VL3 humanized anti-CD11b antibody (antibody, V domains shown)
VH: B1 VH with A68V, L70I, F95Y
VL: B2 VL with D1E
notes: as for B2

Changes are numbered by the printed parent chain. Numbers in names are those of the source.

This test has as its target Mac-1 (CD11b/CD18 integrin) on polymorphonuclear leukocytes (PMNs) of healthy human donors (human, UniProt P11215 17-1152; P05107 23-769). In words: flow cytometry, 30 µg/mL antibody on untreated versus PMA-treated human WBCs, % CD11b+ cells of live PMNs. The procedure: FIG. 3 is a chart showing the results of a flow cytometry analysis of activated polymorphonuclear leukocytes (“PMNs”) stained using 30 humanized anti-CD11b constructs prepared according to the present disclosure. The percentages of CD11b+ cells in live PMN were calculated by a gating based on a control, which is the cells stained with human IgG4 isotype, and are presented as means S.E.M. from four independent experiments. The white bars are CD11b+ cells in untreated white blood cells (WBCs), while the black bars are CD11b+ cells in PMA-treated WBCs.
The baseline CBRM1/5 antibody can distinguish between non-activated (resting) and activated form of Mac-1. In order to validate that humanized variants retained this characteristic, WBCs were isolated from 4 healthy human donors and activated in the absence or presence of phorbol 12-myristate-13-acetate (PMA). The cells were then stained with 30 μg/mL of each of the 30 humanized variants along with control antibody (human IgG4 isotype) and analyzed using flow cytometry. The percentages of CD11b+ cells in live PMNs were calculated by a gating based on a control, which is the cells stained with human IgG4 isotype, and are presented as means S.E.M. from four independent experiments. Variants containing VL5 lost a binding to Mac-1 in polymorphonuclear leukocytes (PMNs) regardless of the pairings with any VH variant (FIGS. 3-4). […] However, VH1/VL6 and all variants with VH2 preserved the characteristic of CBRM1/5 that can distinguish between non-activated (resting) and activated form of Mac-1, while the variants with VH4 or VH5 were likely to lose the specificity of the parental antibody, CBRM1/5 (FIGS. 3-4).
With B1, the binding result is reported as “binds”.
In the case of B2, the binding result is given as “binds”.
Under B3 stands “binds”; under B4, “binds”; under B5, “binds”.
Consider B6, for which the binding result is reported as “binds”.
Turning to B7, the binding result was “binds”.
